One may read the Kd as the free concentration of one partner at which half of the binding sites on the other are occupied at equilibrium, for simple one-to-one binding. High values mean lower affinity, low ones higher affinity. By IC50 is commonly meant the concentration at which inhibition is half-maximal.

This is an account of results in patent publication US20220315670A1 (RESEARCH FOUNDATION FOR THE STATE UNIVERSITY OF NEW YORK, published 2022).

Experiment [1] addresses T1, trastuzumab (Herceptin).
T1 construct: also called Tmab; not shown: the constant regions
Description: ELISA screen of colony lysate on coated trastuzumab, 40 h with 1 uM 1HE, high-affinity panning. A general note: ELISA stands for enzyme-linked immunosorbent assay.

Experiment [2] concerns the target T1, trastuzumab (Herceptin). Description: dissociation ELISA on covalently immobilised trastuzumab. The protocol: (§1) Individual mutants were expressed and purified using a nickel chromatography resin, as previously described (16). […] The following day, unreacted sites were blocked with 10 mM ethanolamine in a 100 mM sodium bicarbonate buffer pH 9.5 for one hour. Purified mutants were incubated for one hour and subsequently washed three times with wash buffer. Following washing, 0.1% BSA PBS solution was added to the initial timepoint wells. […] At individual time points, the buffer in the time point wells was removed by pipetting, and the wells washed three times with wash buffer and 0.1% BSA PBS added. At the terminal time point, all wells were washed three times with wash buffer, and secondary antibodies added at the dilutions listed above for one hour at room temperature. Following secondary incubation, plates were washed three times with wash buffer and three times with dH₂O. 250 μl of 4 mg/ml PnPP in a 10 mM diethanolamine pH 9.8 buffer was added to each well, and absorbance values read for 10 minutes at 30-second intervals. The change in absorbance per minute for each well was divided by the average change in absorbance per minute for the initial time point wells, and the resulting dissociation curves fit to a monoexponential decay function in GraphPad Prism 7 (GraphPad, San Diego, Calif.). Each time point was run in triplicate for each mutant.

Experiment [3] has as its target T1, trastuzumab (Herceptin). Description: SPR, trastuzumab immobilized by amine coupling, 10-hour dissociation, 1:1 Langmuir fit. The protocol: (§2) A mobile phase of 0.05% Tween-20 PBS pH 7.4 was used at a flow rate of 25 μL/minute. […] Association and dissociation rate constants were determined using a 1:1 Langmuir binding model in the biosensor data analysis software Scrubber (BioLogic Software, Canberra, Australia).
(§3) An optimal range was 10 pM to 10 nM.
(In SPR one partner is held on a chip, and binding of the other changes the refractive index at the surface.)

Experiment [4] concerns the target T1, trastuzumab (Herceptin). Description: inferred from the IC50 of the SKOV3 cell competition assay with 200 pM 125I-trastuzumab. The protocol: (§4) SKOV3 cells (ATCC, HTB-77) were grown in complete McCoys 5a media to confluency in a T75 flask and dissociated using 50 μM EDTA. […] Cells were incubated at 4° C. for 90 minutes to reach binding equilibrium followed by 4 washes with 1 mL of 1% BSA PBS buffer to remove non-specific radioactivity. Cell-associated radioactivity was assessed through gamma counting.
as §3

In experiment [5] the target is T1, trastuzumab (Herceptin). Put plainly: SPR, trastuzumab immobilized by amine coupling, 1HE at 10, 20 and 35 nM, 1:1 Langmuir fit. As for the experimental part: as §2, §3
The target of experiment [6] is T1, trastuzumab (Herceptin). Put plainly: competition on SKOV3 cells, 125I-trastuzumab with increasing 1HE, cell-associated radioactivity. As for the experimental part:
Points represent the mean of triplicate samples with standard deviation error bars.
as §4

Experiment [7] addresses T1, trastuzumab (Herceptin). Put plainly: competition on SKOV3 cells, 200 pM 125I-trastuzumab with increasing 1HE, 4 C, 90 minutes, gamma counting. As for the experimental part: as §4, §3
For experiment [8], the target named is T1, trastuzumab (Herceptin). Put plainly: dissociation ELISA, trastuzumab covalently immobilized, 1 uM 1HE in buffer to block rebinding, monoexponential fit. As for the experimental part:
as §1

The target of experiment [9] is T1, trastuzumab (Herceptin). Description: dissociation ELISA on covalently immobilised trastuzumab, 1 uM 1HE in the buffer. As for the experimental part:
as §1

Experiment [10] deals with T1, trastuzumab (Herceptin). Put plainly: dissociation ELISA on covalently immobilised trastuzumab, 500 nM trastuzumab in the buffer. As for the experimental part: as §1
Experiment [11] has as its target T1, trastuzumab (Herceptin). Description: ELISA screen of colony lysate on coated trastuzumab, low-affinity panning.

B1: 2D7 (VHH)
VHH: EVQLVESGGGLVQAGDSLTLSCAASGRTFSSVAMGWFRQAPGKERKFVANISWNGDSTYYTDSVKGRFTISRDNAKNTVYLQMSSLKPEDTAVYYCAADVRWAGDGHRADYWGQGTQVTVSS
In the case of B1, the estimated half-life with trastuzumab (Herceptin) [1] is 43.5 h.

B2: 1HE, anti-idiotypic camelid single domain antibody against trastuzumab (VHH)
VHH: EVQLVESGGGLVQAGDSLTLSCAASGRTFSSVAMGWFRQAPGKERKFVANISWNGDSTYYTDSVKGRFTISRDNAKNTVYLQMSSLKPEDTAVYYCAADVRWTGDGHRADYWGQGTQVTVSS
notes: also called wild-type 1HE; cold-1HE
Regarding B2, the T1/2 in the experiment with trastuzumab (Herceptin) [2] stood at 17.4 h. The molecule also yielded a half-life of dissociation in the experiment with trastuzumab (Herceptin) [3] of 26.6 h. The Kd with trastuzumab (Herceptin) [4] is no more than 0.122 nM; with trastuzumab (Herceptin) [5], 0.0335 nM. In addition, the IC50 with trastuzumab (Herceptin) [6] was determined as 0.129 nM; with trastuzumab (Herceptin) [7], 0.122 nM.

B3: 1HE mutant 2E10 (L18Q, T103A) (VHH)
VHH: EVQLVESGGGLVQAGDSQTLSCAASGRTFSSVAMGWFRQAPGKERKFVANISWNGDSTYYTDSVKGRFTISRDNAKNTVYLQMSSLKPEDTAVYYCAADVRWAGDGHRADYWGQGTQVTVSS
Consider B3, for which the estimated half-life in the experiment with trastuzumab (Herceptin) [1] was 35.7 h. In addition, the estimated binding half-life with trastuzumab (Herceptin) [8] was 20.1 days.

B4: 2D11 (VHH)
VHH: EVQLVESGGGLVQAGDSLTLSCAASGRTFSSVAMGWFRQAPGKERKFVANISWNGDSTYYTDSVKGRFTISRDNARNTVYLQMSSLKPEDTAVYYCAADVRWTGDGHRADYWGQGTQVTVSS
notes: also called 1HE mutant 2D11
Molecule B4 displayed a T1/2 in the experiment with trastuzumab (Herceptin) [9] of 8.8 h. In the experiment with trastuzumab (Herceptin) [1], the estimated half-life is 29.6 h.

B5: 1G1 (VHH)
VHH: EVQLVESGGGLVQAGDSLTLSCAASGRTFSSVAMGWFRQAPGKERKFVANISWDGGSTYYTDSVKGRFTISRDSAKNTVYLQMSSLKPEDTAVYYCAADVRWTGDGHRADYWGQGTQVTVSS
B5 came in with a T1/2 with trastuzumab (Herceptin) [10] of 12.1 h.

B6: 2F9 (VHH)
VHH: EVQLVESGGGLVQAGDSLTLSCAASGRTFSSVAMGWFRQAPGKERKFVANISWNGDSTYYTDSVKGRFTISRDNAKNTVYLQMSSLKPEDTAVYYCAADVRWTGEGHRADYWGQGTQVTVSS
notes: also called 1HE mutant 2F9
In the experiment with trastuzumab (Herceptin) [9], B6 showed a T1/2 of 55.5 h. Moreover, in the experiment with trastuzumab (Herceptin) [1], the estimated half-life was 30.8 h.

B7: 1G11 (VHH)
VHH: EVQLVESGGDLVQAGDSLTLSCAASGRTFSGVAMGWFRQAPGKERKFVANISWNGVSTYYTDSVKGRFTISRDNAKNTVYLQMSSLKPEDTAVYYCAADVRWTGDGHRADYWGQGTQVTVSS
Molecule B7 had a T1/2 with trastuzumab (Herceptin) [10] of 35.1 h.

B8: 2A4 (VHH)
VHH: EVQLVESGGGLVQAGDSLTLSCAASGRTFSSVAMGWFRQAPGKERKFVANISWNGDSAYYTDSVKGRFTISRDNAKNTVYLQMSSLKPEDTAVYYCAADVRWTGDGHRADYWGQGTQVTVSS
notes: also called 1HE mutant 2A4
Molecule B8 registered a T1/2 in the experiment with trastuzumab (Herceptin) [9] of 187 h. In the experiment with trastuzumab (Herceptin) [1], the estimated half-life was 70.8 h.

B9: 2G2 (VHH)
VHH: EVQLVESGGGLVQAGDSLTLSCAASGRTFSSVAMGWFRQAPGKERKFVANISWNGDSTYYTDSVKGRFTISRDNAKNTVYLQMSSLKPEDTAVYYCAADVRWTGDGHRADNWGQGTQVTVSS
Take B9: in the experiment with trastuzumab (Herceptin) [1], the estimated half-life was 15.7 h.

B10: 1C3 (VHH)
VHH: EVQLVESGGGLVQAGDSLTLSCAASGRTFSSVAMGWFRQAPGKERKFVANISWNGDSTYYTDSVKGRFTISRDNAKNTVYLQMSSLKPEDTAVYYCVADVRWTGDGHRADYWGQGTQVTVSS
The molecule B10 showed a T1/2 with trastuzumab (Herceptin) [10] of 12.1 h.

B11: 2H2 (VHH)
VHH: EVQLVESGDGLVQAGDSLTLSCAASGRAFSSVAMGWFRQAPGKERKFVANISWNGDSTYYTDSVKGRFTISRDNAKNTVYLQMSSLKPEDTAVYYCAADVRWTGDGHRADYWGQGTQVTVSS
notes: also called 1HE mutant 2H2
B11 came in with a T1/2 in the experiment with trastuzumab (Herceptin) [9] of 5.4 h. The estimated half-life in the experiment with trastuzumab (Herceptin) [1] is 26.9 h.

B12: 1E10 (VHH)
VHH: EVQLVESGGGLVQAGAGLTLSCAASGRTFSSVAMGWFRQAPGKERKFVANISWNGDSTYYTDSVKGRFTISRDNAKNTVYLQMSSLKPEDTAVYYCAADVRWTGDGHRADYWGQGTQVTVSS
notes: also called 1HE mutant 1E10
As to B12, the estimated half-life with trastuzumab (Herceptin) [11] was 19.3 h.

B13: 2C4 (VHH)
VHH: EVQLVESGGGLVQAGDSLTLSCAASGRTFSSVAMGWFRQAPGKERKFVANISWNGDSTYYTDSVKGRFTISRDNAKNTVYLQMSSLKPEDTAVYYCAADVRWAGDGHRADYWGQGTLVTVSS
notes: also called 1HE mutant 2C4
Take B13: the T1/2 in the experiment with trastuzumab (Herceptin) [9] stood at 84.1 h.

B14: 2E11 (VHH)
VHH: EVQLVESGGGLVQAGDSLTLSCAASGRTFSSVAMGWFRQAPGKERKFVANISWNGDSTYYTDSVKGRFTISRDNAKNTVYLQMSSLEPEDTAVYYCAADVRWTGDGHRADYWGQGTQVTVSS
notes: also called 1HE mutant 2E11
For the molecule B14, the estimated half-life in the experiment with trastuzumab (Herceptin) [1] was 17.7 h.

B15: 1F3 (VHH)
VHH: EVQLVESGGGLVQAGDSLTLSCAASGRTFSSVAMGWFRQAPGKERKFVANISWNGYSTYYTDSVKGRFTISRDNAKNTVYLQMSSLKPEDTAVYYCAADVRWTGDGHRADYWGQGTQVTVSS
For the molecule B15, the T1/2 with trastuzumab (Herceptin) [10] was 5.1 h.
